T1: Arc-mCherry (mouse), Q9WV31
T1 chain: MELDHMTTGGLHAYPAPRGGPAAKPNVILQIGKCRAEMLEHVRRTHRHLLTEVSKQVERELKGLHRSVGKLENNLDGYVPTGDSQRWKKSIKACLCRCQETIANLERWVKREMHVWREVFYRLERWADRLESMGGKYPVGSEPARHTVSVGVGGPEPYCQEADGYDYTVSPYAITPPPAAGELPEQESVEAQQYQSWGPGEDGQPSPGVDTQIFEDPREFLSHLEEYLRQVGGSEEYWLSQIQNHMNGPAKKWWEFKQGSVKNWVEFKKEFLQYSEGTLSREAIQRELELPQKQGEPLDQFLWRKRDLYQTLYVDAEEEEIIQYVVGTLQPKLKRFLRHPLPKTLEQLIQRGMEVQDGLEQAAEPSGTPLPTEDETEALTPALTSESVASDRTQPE

B1: GST-Arc (natural protein, mouse, UniProt Q9WV31 1-396, looked up)
chain: T1 chain
notes: Arc (activity-regulated cytoskeleton-associated protein, Arg3.1), mouse cDNA; also called Arg3.1; Activity-regulated cytoskeleton-associated protein; source: pGST.parallel 1 vector, purified (glutathione agarose resin, eluted with 50 mM glutathione; SEC when needed)
B2: EGFP-PICK1 (natural protein, human, UniProt Q9NRD5 1-415, looked up)
chain: MFADLDYDIEEDKLGIPTVPGKVTLQKDAQNLIGISIGGGAQYCPCLYIVQVFDNTPAALDGTVAAGDEITGVNGRSIKGKTKVEVAKMIQEVKGEVTIHYNKLQADPKQGMSLDIVLKKVKHRLVENMSSGTADALGLSRAILCNDGLVKRLEELERTAELYKGMTEHTKNLLRAFYELSQTHRAFGDVFSVIGVREPQPAASEAFVKFADAHRSIEKFGIRLLKTIKPMLTDLNTYLNKAIPDTRLTIKKYLDVKFEYLSYCLKVKEMDDEEYSCIALGEPLYRVSTGNYEYRLILRCRQEARARFSQMRKDVLEKMELLDQKHVQDIVFQLQRLVSTMSKYYNDCYAVLRDADVFPIEVDLAHTTLAYGLNQEEFTDGEEEEEEEDTAAGEPSRDTRGAAGPLDKGGSWCDS
notes: PICK1, 'a human variant of PICK1' ligated to EGFP at the N terminus; source: SH-SY5Y cells, transfected, in live cells; not shown: EGFP, N-terminal, kept

Key:
[1] = molecular target: T1, Arc-mCherry (mouse), Q9WV31; assay: TIRF number and brightness (N&B) analysis; live SH-SY5Y cells, plasma membrane; brightness normalised to monomeric EGFP or mCherry; alone or co-transfected; settings: remark: other sources report otherwise
His-PICK1 = molecular target: T2, His-PICK1 (human, UniProt Q9NRD5 1-415); assay: pull-down; soluble His-PICK1 (1, 5 and 10 µM) with GST-Arc (1 µM) or GST (1 µM) bound to glutathione-agarose, or resin alone; 20 mM HEPES pH 7.5, 100 mM NaCl, 1 mM DTT, 1 h at 4 °C; bound PICK1 from SDS-PAGE and BCA assay; settings: both partners purified
T2 construct: also called recombinant His-PICK1; source: E. coli BL21-Codon(+) DE3, pQE-80L, purified (HisTrap; SEC when needed)

[2] = molecular target: T1, Arc-mCherry (mouse), Q9WV31; assay: photon counting histogram (PCH) brightness analysis; live SH-SY5Y cells, cytosol; brightness normalised to monomeric EGFP or mCherry; co-transfected with the other construct or with the free fluorescent protein; 20 to 1,500 nM; settings: remark: other sources report otherwise
[3] = molecular target: the molecule itself; assay: TIRF number and brightness (N&B) analysis; live SH-SY5Y cells, plasma membrane; brightness normalised to monomeric EGFP or mCherry; alone or co-transfected

| Binder | stoichiometry N [1] | binding result (His-PICK1) | normalized brightness (Norm. ε) [2] | stoichiometry N [3] |
| --- | --- | --- | --- | --- |
| B1 | 2 | binds | 1.37 | – |
| B2 | – | – | – | 2 |

Source: article PMC6168463, “Arc/Arg3.1 has an activity-regulated interaction with PICK1 that results in altered spatial dynamics” (Scientific Reports, 2018)
